In patent publication US20250289871A1 (AstraZeneca / MedImmune, published 2025):

Target: SARS-CoV-2 spike RBD (residues 334-526), AviTag and 8×HisTag (SARS-CoV-2, UniProt P0DTC2 334-526)

Row | Binder | Kd
1 | RQ33 (TM-YTE) (antibody, V domains shown) VH: QVQLQESGPGLVKPSETLSLTCTVFGGSITSSNHYWVWIRQPPGKGLEWIGSMYYSGSTAYNPSLTNRVTISVDTSKNQFSLKLSSVTAADTAVYYCARQIGPKRPSQVADWFDPWGQGTLVTVSS VL: not shown | 3.65 nM
2 | RQ43 (TM-YTE) (antibody, V domains shown) VH: EVQLLETGGGLVQPGRSLRLSCAASGFPFDDYAIHWVRLAPGKGLEWVSSISWDSGSIGYADSVKGRFTISRDNAKNSLYLQMNSLRAEDTALYYCAKGAFPGYSSGWYYGLDVWGQGATVTVSS VL: QSVVTQPPSASGSLGQSVTISCTGTSSDVGGYNYVSWYQQHPGKAPKLMIFEVSKRPSGVPDRFSGSKSGNTASLTVSGLQAEDEADYYCSSYAGNKGVFGGGTKLTVL | < 0.001 nM
3 | RQ40 (TM-YTE) (antibody, V domains shown) VH: EVQLVESGAEVKKPGSSVKVSCKASGGTFSSYAINWVRQAPGQGLEWMGGIIPIFRTPHYAQKFQGRVTITADESTGTAYMELSSLRSEDTAVYYCASPSCGGDCPQYLKSSKLDWYFDLWGRGTLVTVSS VL: VIWMTQSPGTLSLSPGERATLSCRASQSVSSTYLAWYQQKPGQAPRLLIYGASSRATGIPDRFSGSGSGTDFTLTISRLEPEDFAVYYCQHYGSSPLTFGQGTRLEIK | < 0.001 nM
